Test results reported in US20060276386A1 (published 2006).

Target: T1, C-terminally FLAG-tagged full length UCH-L5 (mouse, UniProt Q9WUP7 1-329)
T1 construct: range 1-329; Co-expressed in HEK-293 cells and immunoprecipitated with an anti-FLAG monoclonal; also called UCH-L5 FLAG
T1 sequence: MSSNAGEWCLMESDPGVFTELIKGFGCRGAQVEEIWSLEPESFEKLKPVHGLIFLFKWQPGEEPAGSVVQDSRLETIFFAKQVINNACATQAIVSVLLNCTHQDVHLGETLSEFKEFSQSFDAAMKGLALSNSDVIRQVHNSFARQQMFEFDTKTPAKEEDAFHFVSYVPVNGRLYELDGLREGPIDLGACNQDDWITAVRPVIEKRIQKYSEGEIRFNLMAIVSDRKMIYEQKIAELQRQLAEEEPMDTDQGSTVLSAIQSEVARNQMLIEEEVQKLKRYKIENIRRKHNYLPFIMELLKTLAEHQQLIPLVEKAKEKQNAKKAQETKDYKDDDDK
Assay: co-immunoprecipitation: anti-FLAG IP, anti-HA western blot, HEK-293 lysates
Protocol: C-terminally FLAG®-tagged UCH-L5 or UCH-L5ΔC were co-expressed in human embryonic kidney (HEK)—293 cells with N-terminally HA-tagged Smad proteins.
Referring to FIG. 3, HEK-293 cells were transfected with 20 μg of DNA construct directing the expression of UCH-L5 FLAG or UCH-L5ΔC FLAG and 20 μg of DNA construct expressing one of: HA-Smad 3₁₋₃₈₅; HA-Smad3₁₋₂₄₀; or HA-Smad3₁₋₄₄. Lysates of the cells were prepared by a standard detergent lysis method, using 1% Triton X-100 and then immunoprecipitated with an anti-FLAG monoclonal. The precipitated proteins were then subjected to SDS-PAGE.
For comparison, a blot of the same samples was then probed with a haemagglutinin-specific 1st antibody.

B1: N-terminally HA-tagged Smad3 residues 1-144 (other)
chain: MSSILPFTPPIVKRLLGWKKGEQNGQEEKWCEKAVKSLVKKLKKTGQLDELEKAITTQNVNTKCITIPRSLDGRLQVSHRKGLPHVIYCRLWRWPDLHSHHELRAMELCEFAFNMKKDEVCVNPYHYQRVETPVLPPVLVPRHT
notes: not shown: haemagglutinin (HA) tag, N-terminal
B1: no binding.
